Source: article PMC10502012

Tests used:
[1] = biological target: chicken PHT1 (purified, wild type) (chicken); assay: thermal shift (nanoDSF); TASL peptide titration: PHT1 with eleven 2-fold peptide dilutions from 100 µM; gel filtration buffer with 5% DMSO; KD fitted by a modified Hall's method
[2] = biological target: chicken PHT1 (purified, wild type) (chicken); assay: thermal shift (nanoDSF); concentration-dependent thermal shift of PHT1 with dipeptides; KD fitted by a modified Hall's method

| Substance | Kd [1] [nM] | Kd [2] [µM] |
| --- | --- | --- |
| TASL_(1-13) peptide | 360 |  |
| Arginine-Phenylalanine dipeptide |  | 73 |
| TASL peptide with a length of 14 residues | 400 |  |
| Lysine-Valine dipeptide |  | 63 |
